“Also recorded” adds a separate entry of the source. Like-named read-outs stand apart in the source and are kept apart here.
Columns and labels:
[1] = SEC-HPLC aggregation analysis; assay type: physicochemical
Experimental: The antibody aggregation was analyzed by size-exclusion, high-performance liquid chromatography (SEC-HPLC) using an Agilent 1100. The mAb was diluted to 1 mg/mL in DPBS. The antibody (20 μL) was injected onto a TSKgel® SuperSW guard column (4.6 mm×3.5 cm, 4 μm pore size, Tosoh Bioscience), followed by a TSKgel® SuperSW3000 column (4.6 mm×30 cm, 4 μm pore size), eluted from the column with 0.1 M sodium phosphate containing 0.15 M NaCl and 0.05% NaN3, at pH 7.4, at a flow rate of 0.3 mL/min for 20 min. All data were analyzed using Agilent ChemStation software. Percent aggregation was calculated as [PAaggregate/PAtotal]*100, where PA=integrated peak area.
ADC was diluted to 1 mg/mL in DPBS. ADC (10 μL) was then injected onto an Advanced SEC 300A guard column (4.6 mm×3.5 cm, 2.7 μm pore size, Agilent), followed by a AdvancedBio 300A column (4.6 mm×30 cm, 2.7 μm pore size). ADC was eluted from the column with 0.1 M sodium phosphate containing 0.15 M NaCl and 5% IPA, pH 7.4 at a flow rate of 0.25 mL/min for 28 min. All data were analyzed using Agilent ChemStation software. Percent aggregation was calculated as [PAaggregate/PAtotal]*100, where PA=integrated peak area.

[2] = target: human mesothelin (Homo sapiens, UniProt Q13421); test: ELISA, mesothelin; assay type: binding; conditions: MORAb-009 and its ADCs; for EC50: read-out: Antigen Binding ELISA, EC50
Experimental: Recombinant human mesothelin was diluted to 1 μg/mL in coating buffer (50 mM carbonate-bicarbonate buffer, pH 9.6), and coated onto 96-well Maxisorp black plates (Thermo, Cat No. 43711, 100 μL/well) at 4° C., overnight. Coating solution was discarded and the plates were washed three times using 1×PBS with 0.05% Tween-20 (PBST) buffer. Plates were blocked in 300 μL blocking buffer (1% BSA in PBST) at room temperature for 2 hours on an orbital shaker. […] Blocking buffer was discarded and 100 μL/well of diluted antibody was added to the plates. Plates were incubated at room temperature for 2 hours on an orbital shaker. Antibody solution was discarded and plates were washed three times using PBST. 100 μL/well of goat-anti-human IgG (H+L)-HRP (1:10,000 dilution in blocking buffer) solution was added to the plates, and plates were incubated at room temperature for 1 hour on an orbital shaker. Secondary antibody solution was discarded and plates were washed three times using PBST. 100 μL/well of QuantaBlu fluorogenic peroxidase substrate working solution (Thermo, Cat No. 15169) was added to the plates, and plates were incubated at room temperature for 30 min. Fluorescence was read at excitation 325 nm/emission 420 nm using a SpectraMax M5 (Molecular Devices). Data was analyzed using SoftMaxPro 5.4.2 software with 4-parameter fitting.

[3] = tested on: A431 cells; test: Crystal Violet cytotoxicity assay (Example 4), A431 (parental); assay type: cell-based, human; conditions: mean of replicate experiments, read-out: Cytotoxicity IC50 (nM), A431 (FR^neg, MSLN^neg)
[4] = tested on: IGROV1 cells; test: Crystal Violet cytotoxicity assay (Example 4), IGROV1; assay type: cell-based, human; conditions: mean of replicate experiments, read-out: Cytotoxicity IC50 (nM), IGROV1 (FR^hi, MSLN^neg)
Experimental: (§1) Test reagents were serial diluted 1:3 in 2 mL deep-well dilution plates, starting at 200 nM (10 dilutions total). […] Medium was then discarded. […] Plates were read at 570 nm. Data was analyzed using GraphPad Prism 6.

[5] = tested on: NCI-N87 cells; test: Crystal Violet cytotoxicity assay (Example 4), NCI-N87; assay type: cell-based, human
Experimental: as §1

[6] = tested on: HL-60 cells; test: Bystander killing assay, Nuclight Red HL-60; assay type: cell-based, human
Experimental: The day before study commencement, Nuclight™ Green (NLG) IGROV1 cells were seeded at 5,000 cells/well into 96-well round bottom plates, followed by centrifugation at 1,000 rpm for 3 min at room temperature to ensure formation of a cell pellet. The plate was placed in the vessel of an Incucyte Zoom® (EssenBio science) and incubated at 37° C./5% CO2 overnight. The program was set to collect images of cell growth, and to determine total numbers of nuclear green-stained and nuclear red-stained cells as well as phase-confluency of the cells every two hours. […] 50 μL of cytotoxin solution was added to the NLG-IGROV1 cells and incubated for 30 min. During the incubation period, Nuclight™ Red (NLR) HL-60 (FR^neg) cells were diluted to 2×10^5, 1×10^5 or 5×10^4 cell/mL with fresh media. 50 μL of the NLR-HL60 cell suspension or medium alone was added to the NLG-IGROV1 wells, followed by centrifugation at 1,000 rpm for 3 min at room temperature to ensure re-formation of the cell pellet. The plate was placed back into the vessel of Incucyte Zoom (EssenBio science) and incubated at 37° C./5% CO2 for up to 5 days. Relative cell growth of NLG-IGROV1 was determined by comparison to no ADC or free drug alone added samples using green cell counts. Relative cell growth of HL60 was done similarly, except that red cell count was determined. Determination of IC50 values for both NLG-IGROV1 and NLR-HL-60 was determined using Prism (GraphPad).
In order to assess bystander killing activity, an assay was set up using two labeled cell lines. […] Cytotoxicity was monitored by an Incucyte Zoom® cell imager.

[7] = tested on: NUGC3 cells; test: Crystal Violet cytotoxicity assay (Example 4), NUGC3; assay type: cell-based, human; conditions: listed as MORAb-003-VCP-eribulin
Experimental: as §1

[8] = tested on: Endo-12961 endometrial cancer patient-derived xenograft; test: Endometrial cancer PDx model Endo-12961
Experimental: Tumor fragments were implanted subcutaneously into the left flank of 40 NMRI nu/nu female mice, and tumor volume was monitored. Mice with a tumor volume of 100-160 mm^3 were randomized into one of four groups (Groups A-D, Table 39). […] Each group consisted of 8 animals. The day of randomization was designated as Day 0 of the experiment.
Tumor growth was evaluated by the measurement of two perpendicular diameters twice weekly, and tumor volume (TV), relative tumor volume (RTV) and treated/control (T/C) values were calculated. Body weight was also evaluated twice weekly as a parameter for toxicity, with the calculation of the body weight per group and body weight changes (BWC) relative to the start of treatment. Animals were sacrificed when the individual tumor volume exceeded 1 cm^3, or at the end of the study.

Substance	SEC-HPLC Analysis % Aggr. [1] [%]	SEC-HPLC Analysis % Frag. [1] [%]	SEC-HPLC Analysis % Monomer [1] [%]	Antigen Binding ELISA, EC50 [2] [µg/mL]	EC50 [2] [nM]	IC50 [3] [nM]	IC50 [4] [nM]	cytotoxicity on NCI-N87 cells, in words [5]	EC50 ([6]; HL-60 (FR-negative) cells alone, read-out: EC50, HL-60) [nM]	EC50 ([6]; HL-60 co-cultured with IGROV1, read-out: EC50, HL-60 (co-culture with IGROV-1)) [nM]	cytotoxicity on NUGC3 cells, in words [7]	tumor re-growth during the study, in words ([8]; MORAb-202 5 mg/kg or eribulin 3.2 mg/kg)	anti-tumor activity, in words ([8]; MORAb-202 5 mg/kg or eribulin 3.2 mg/kg, single i.v. dose)	effect on body weight, in words ([8]; first week post-treatment)
MORAb009-PEG2-eribulin	1.15	1.74	97.11	0.00884	0.06	> 100	42.8							
MORAb009-PEG4-eribulin	1.03	1.84	97.13	0.0116	0.08	> 100	76.3							
MORAb-003-maleimido-PEG2-Val-Cit-pAB-eribulin [MORAb-202]								weak but specific killing	39.7	0.24	little killing; also recorded: low cytotoxicity	no significant tumor re-growth	significant anti-tumor activity	no body weight loss

Source: patent US20230398228A1, “ERIBULIN-BASED ANTIBODY-DRUG CONJUGATES AND METHODS OF USE” (EISAI R&D MANAGEMENT CO., LTD., priority 2016, published 2023)
